Measurements: paper PMC5777896 (The FEBS journal, 2017)
Like-named read-outs stand apart in the source and are kept apart here. One block for each molecule: values may come before it.

B1: human Hsc20 (natural protein, UniProt Q8IWL3 72-235, looked up)
chain: DYFSLMDCNRSFRVDTAKLQHRYQQLQRLVHPDFFSQRSQTEKDFSEKHSTLVNDAYKTLLAPLSRGLYLLKLHGIEIPERTDYEMDRQFLIEIMEINEKLAEAESEAAMKEIESIVKAKQKEFTDNVSSAFEQDDFEEAKEILTKMRYFSNIEEKIKLKKIPL
B2: full-length human Nfu (natural protein, UniProt Q9UMS0 10-254, looked up)
chain: GAAAVAAGLRRRFCHMLKNPYTIKKQPLHQFVQRPLFPLPAAFYHPVRYMFIQTQDTPNPNSLKFIPGKPVLETRTMDFPTPAAAFRSPLARQLFRIEGVKSVFFGPDFITVTKENEELDWNLLKPDIYATIMDFFASGLPLVTEETPSGEAGSEEDDEVVAMIKELLDTRIRPTVQEDGGDVIYKGFEDGIVQLKLQGSCTSCPSSIITLKNGIQNMLQFYIPEVEGVEQVMDDESDEKEANSP

Tests used:
[1] = molecular target: IscU (Escherichia coli) (UniProt P0ACD4); assay: SPR; details: cited from earlier work
Sequence of IscU (Escherichia coli) (P0ACD4 whole entry): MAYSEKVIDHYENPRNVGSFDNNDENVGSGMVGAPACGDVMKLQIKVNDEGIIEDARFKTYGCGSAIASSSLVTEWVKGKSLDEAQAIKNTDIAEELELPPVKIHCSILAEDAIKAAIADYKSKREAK

[2] = molecular target: human HSPA9 (human) (UniProt P38646)
Sequence of human HSPA9 (human) (P38646 47-679): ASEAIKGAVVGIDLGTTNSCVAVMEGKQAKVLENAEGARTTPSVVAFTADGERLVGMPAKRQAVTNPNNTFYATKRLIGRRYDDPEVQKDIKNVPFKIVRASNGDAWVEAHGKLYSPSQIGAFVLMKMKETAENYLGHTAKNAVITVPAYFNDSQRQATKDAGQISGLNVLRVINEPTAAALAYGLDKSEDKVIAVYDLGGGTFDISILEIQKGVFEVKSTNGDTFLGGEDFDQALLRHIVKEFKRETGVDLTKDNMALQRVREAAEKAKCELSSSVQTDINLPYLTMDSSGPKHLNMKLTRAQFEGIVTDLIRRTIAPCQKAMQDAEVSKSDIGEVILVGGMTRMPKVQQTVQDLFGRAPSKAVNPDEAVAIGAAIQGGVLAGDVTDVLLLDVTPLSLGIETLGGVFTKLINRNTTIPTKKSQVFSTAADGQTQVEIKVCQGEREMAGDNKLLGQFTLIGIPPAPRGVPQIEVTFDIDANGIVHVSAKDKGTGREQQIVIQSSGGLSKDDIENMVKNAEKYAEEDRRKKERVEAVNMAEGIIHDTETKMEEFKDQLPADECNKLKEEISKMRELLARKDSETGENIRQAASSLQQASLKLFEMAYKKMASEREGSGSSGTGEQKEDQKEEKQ

[3] = molecular target: human HSPA9 (human) (UniProt P38646); assay: ITC
[4] = molecular target: human HSPA9 (human) (UniProt P38646); assay: ITC; remark: listed apart in the source
[5] = molecular target: human Hsc20 (human) (UniProt Q8IWL3); assay: ITC
[6] = molecular target: human HSPA9 (human) (UniProt P38646); assay: ITC; remark: listed apart in the source
[7] = molecular target: human Hsc20 (human) (UniProt Q8IWL3); assay: ITC; remark: listed apart in the source
[8] = molecular target: human HSPA9 (human) (UniProt P38646); assay: ITC; remark: listed apart in the source
[9] = molecular target: B2; assay: ITC
[10] = molecular target: B1; assay: ITC
[11] = molecular target: T1, human HSPA9 (human, UniProt P38646 47-679); assay: ITC
T1 sequence (P38646 47-679): as above

[12] = molecular target: T2, human HSPA9/Hsc20 complex (human, UniProt P38646 47-679; Q8IWL3 72-235); assay: ITC
T2 sequence (P38646 47-679, one chain of several): as the sequence (P38646 47-679) above

[13] = molecular target: T1, human HSPA9; assay: cell-based or functional assay
[14] = molecular target: T2, human HSPA9/Hsc20 complex; assay: ITC; remark: listed apart in the source
[15] = molecular target: T1, human HSPA9; assay: ITC; remark: listed apart in the source

Molecule: HscA (from UniProt P0A6Z1)
Kd [1]: 39 µM

Vmax (maximum ratio of stimulation) of HSPA9 ATPase activity by C-Nfu, 0~150 µM [2]: 2.44 fold | Kd [3]: 18 µM | dH [3]: -30.5 kJ/mol | Kd [4]: 14.9 µM | dH [4]: -16 kJ/mol | stoichiometry N [4]: 0.88 | Kd [5]: 10 µM | dH [5]: -2.38 kJ/mol | stoichiometry N [5]: 0.79 | Kd [6]: 30.3 µM | dH [6]: -8.37 kJ/mol | stoichiometry N [6]: 0.907 | Kd [7]: 11 µM | dH [7]: -7.11 kJ/mol | stoichiometry N [7]: 0.94 | Kd [8]: 51 µM | dH [8]: -13.4 kJ/mol
Molecule: C-terminal domain of human Nfu (from UniProt Q9UMS0 10-254) (domain or fragment)

Molecule: B1
Kd [9]: 10 ± 1 µM

Molecule: B2
stoichiometry N [10]: 0.93 ± 0.06 | Kd [11]: 8.3 ± 1.4 µM | dH [11]: -26.4 ± 2.93 kJ/mol | stoichiometry N [11]: 0.9 ± 0.1 | Kd [12]: 9.43 ± 0.07 µM | dH [12]: -7.11 ± 0.418 kJ/mol | stoichiometry N [12]: 0.985 ± 0.04 | Vmax (maximum ratio of stimulation) of HSPA9 ATPase activity by Nfu, 0~150 µM [13]: 3.78 fold | Kd [14]: 0.3 ± 0.1 µM | dH [14]: -14.2 ± 0.418 kJ/mol | stoichiometry N [14]: 0.95 ± 0.02 | Kd [15]: 36 ± 4 µM | dH [15]: -20.5 ± 0.418 kJ/mol | stoichiometry N [15]: 0.9 ± 0.2
